The values that follow come from PMC6082628.

In series [1] the target is T1, Act1 SEFIR (mouse, UniProt Q8N7N6 391-537).
T1 sequence: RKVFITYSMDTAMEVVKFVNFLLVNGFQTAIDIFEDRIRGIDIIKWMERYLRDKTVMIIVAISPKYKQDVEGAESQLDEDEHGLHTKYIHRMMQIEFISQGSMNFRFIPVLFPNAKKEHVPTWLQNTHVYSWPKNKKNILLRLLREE
Nature of the series: EMSA. Background: A gel shift assay detects complexes by their altered migration in electrophoresis.

In series [2] the target is T1, Act1 SEFIR. The series is described as follows: EMSA. This is another data set of the same source.
Series [3] has as its target T1, Act1 SEFIR. The series is described as follows: competition.
Series [4] deals with T1, Act1 SEFIR. Nature of the series: competition. This is another data set of the same source.

For the molecule CCUUGGACAUUUUGUGUCUAGUUGGUAGGGCAUAAUGGGGUUUUACA (ssRNA) [Stem-loop C CCC to GGG], the binding result with Act1 SEFIR [1] is reported as “no binding”.
As to CCUUGGACAUUUUGUGUCUAGUUGGUACCCCAUAAUGGGGUUUUACA (structured_RNA) [SBE stem swap], the binding result with Act1 SEFIR [2] is on record as “binds”.

B1: Cxcl1 220-II (structured_RNA)
RNA: GUUGGUAGGGCAUAAUGCCCUUUUACAUUCUUUAACCCUGUUUCUCCUGGUCUCGUCUCGCUCGGGACAGAGACGUUCAAAGGACUGUUACAAAUGAAGUAAAAAUAAAAG
In the case of B1, in the series with Act1 SEFIR [1], the binding result is listed as “binds”.
Still for that read-out and setting: under CCUUGGACAUUUUGUGUCUAGUUGGUAAAACAUAAUGCCCUUUUACA (ssRNA) [SBE mutant C] stands “no binding”.
Consider CCUUGGACAUUUUGUGUCUAGUUGGUAAAACAUAAUGCCCUUUUACA (ssRNA, 2'-O-methyl on the first three residues at 5' and 3' ends (as ordered)) [SBE mutant C aptamer (competitor)], for which the binding result with Act1 SEFIR [3] is given as “no binding”.
As to CCUUGGACAUUUUGUGUCUAGUUGGUAGGGCAUAAUGCCCUUUUACA (structured_RNA, 2'-O-methyl on the first three residues at 5' and 3' ends (as ordered)) [SBE WT aptamer (competitor)], the binding result in the series with Act1 SEFIR [4] is recorded as “binds”.
